Results taken from patent US20240270857A1 (CHIA TAI TIANQING PHARMACEUTICAL GROUP, published 2024).
Positions count from the first letter of the chain named. Like-named read-outs stand apart in the source and are kept apart here. One block for each binder: values may come before it.

Tests used:
[1] = target: T1, human IL-36R overexpressed on 293T-hIL36R-NFκB cells (human, UniProt Q9HB29 20-575); test: cell-based or functional assay
T1 sequence: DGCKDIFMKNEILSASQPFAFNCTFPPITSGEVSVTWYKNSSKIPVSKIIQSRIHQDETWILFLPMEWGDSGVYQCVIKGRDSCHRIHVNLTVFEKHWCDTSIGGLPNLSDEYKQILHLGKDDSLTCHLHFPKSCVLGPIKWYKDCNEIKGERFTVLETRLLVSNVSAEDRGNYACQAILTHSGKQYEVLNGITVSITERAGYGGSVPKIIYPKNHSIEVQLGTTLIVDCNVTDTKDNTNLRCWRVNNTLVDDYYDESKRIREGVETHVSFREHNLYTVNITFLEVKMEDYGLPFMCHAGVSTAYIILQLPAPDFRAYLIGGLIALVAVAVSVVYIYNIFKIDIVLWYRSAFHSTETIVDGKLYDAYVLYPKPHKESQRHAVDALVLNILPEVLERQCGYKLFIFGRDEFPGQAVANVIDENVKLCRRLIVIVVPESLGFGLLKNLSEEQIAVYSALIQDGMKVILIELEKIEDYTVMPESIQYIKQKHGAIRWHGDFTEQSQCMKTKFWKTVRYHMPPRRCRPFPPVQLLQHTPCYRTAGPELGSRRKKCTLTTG

[2] = target: T1, human IL-36R overexpressed on …; test: FACS on 293T-hIL36R-NFκB cells, ratio of MFI to background MFI
Description: (§1) After the cells was washed with PBS, the cells were resuspended with 100 μL of PBS and then the fluorescence signal was detected using a flow cytometer (BD, Accuri C6). […] The ratio was the ratio of mean fluorescence intensity (MFI) of the experimental group/the background MFI, and the resulting data were analyzed using GraphPad Prism.
(§2) Affinity, binding and blocking assays for humanized antibodies hz72C1-1.1, hz72C1-1.2, hz72C1-1.3, hz72C1-2.1, hz72C1-2.2 and hz72C1-2.3 as well as hz84C4-1.1, hz84C4-1.2, hz84C4-1.3, hz84C4-1.4, hz84C4-1.5, hz84C4-2.1, hz84C4-2.2, hz84C4-2.3, hz84C4-2.4 and hz84C4-2.5 were performed according to the methods of Example 4, Example 5. Example 6, Example 7 and Example 8.

[3] = target: T2, CynoIL36R-ECD mFc recombinant protein (cynomolgus monkey); test: ELISA, plate coated with CynoIL36R-ECD mFc, HRP-protein A/G, OD450
T2 construct: Made in ExpiCHO, purified on Protein A; also called cynomolgus IL-36R extracellular region with mouse antibody heavy chain Fc
T2 chain: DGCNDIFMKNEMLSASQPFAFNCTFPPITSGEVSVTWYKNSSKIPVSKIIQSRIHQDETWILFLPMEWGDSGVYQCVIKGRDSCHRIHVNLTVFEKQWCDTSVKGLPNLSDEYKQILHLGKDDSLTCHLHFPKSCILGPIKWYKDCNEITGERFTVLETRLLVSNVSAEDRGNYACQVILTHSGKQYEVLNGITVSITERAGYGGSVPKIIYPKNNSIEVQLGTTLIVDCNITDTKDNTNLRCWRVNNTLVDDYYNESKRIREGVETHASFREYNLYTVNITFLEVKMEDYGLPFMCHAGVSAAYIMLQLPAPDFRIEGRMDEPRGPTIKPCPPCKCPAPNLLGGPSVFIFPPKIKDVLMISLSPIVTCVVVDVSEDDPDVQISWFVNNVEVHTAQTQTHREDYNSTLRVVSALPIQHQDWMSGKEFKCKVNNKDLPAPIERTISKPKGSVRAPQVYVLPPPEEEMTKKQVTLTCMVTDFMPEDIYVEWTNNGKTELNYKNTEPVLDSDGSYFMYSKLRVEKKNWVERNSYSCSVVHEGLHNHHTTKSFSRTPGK
Description: The binding activity of anti-IL-36R antibodies to IL-36R was analyzed by ELISA using human IL-1Rrp2/IL-1R6 protein, His Tag (ACROBiosystems, IL2-H52H6) and CynoIL36R-ECD mFc (for detection of chimeric and humanized antibodies), and hIL36R-ECD hFc and CynoIL36R-ECD hFc protein (for detection of hybridoma antibodies) as antigens. A 96-well plate (Costar, 9018) was coated with 2 μg/mL antigen at 100 μL/well and incubated overnight at 4° C. After the 96-well plate was washed with a washing buffer (PBS containing 0.05% v/v Tween 20), a blocking buffer (PBS containing 2% bovine serum albumin) was added for blocking at 37° C. for 2 h. After the 96-well plate was washed with the washing buffer, 100 μL of the gradient diluted anti-IL-36R antibody of the present disclosure or the reference antibody BI655130 (the initial concentration of the antibody was 66 nM, 4-fold gradient dilution) was added to each well, and the plate was incubated at room temperature for 1 h. After the 96-well plate was washed with the washing buffer, 100 μL of horseradish peroxidase-conjugated recombinant protein A/G (TheroScientific, 32490) was added to each well, and the plate was incubated at room temperature for 1 h. After the 96-well plate was washed with the washing buffer, 100 μL of a TMB solution (Thermo, 00-4201-56) was added to each well, and the plate was incubated at room temperature for 2 min. Finally, 100 μL of a stop solution (2 N H₂SO₄) was added to each well to stop the reaction. Absorbance was read at 450 nm using a microplate reader (PE, Envision), the resulting data was analyzed using GraphPad Prism, and EC₅₀ was calculated. Binding EC₅₀ of the chimeric anti-IL-36R antibodies to hIL-36R in an ELISA assay is shown in FIG. 1. and binding EC₅₀ of the chimeric anti-IL-36R antibodies to CynoIL-36R in an ELISA assay is shown in FIG. 2. The binding of BI655130 is shown as a control, and the binding of IgG4 is shown as a negative control.

[4] = target: T1, human IL-36R overexpressed on …; test: FACS on 293T-hIL36R-NFκB cells, ratio of MFI to background MFI; remark: listed apart in the source
Description: as §1, §2

IC50 (M); hIL36α; NFκB-luciferase [1]: 1.04e-08 M
IC50 (M); hIL36αβγ; NFκB-luciferase [1]: ~4.15e-08 M
IC50 (M); hIL36β; NFκB-luciferase [1]: 5.07e-09 M
IC50 (M); hIL36γ; NFκB-luciferase [1]: 2.18e-08 M
Maximum inhibition rate %; hIL36α; NFκB-luciferase [1]: 101%
Maximum inhibition rate %; hIL36αβγ; NFκB-luciferase [1]: 86.7%
Maximum inhibition rate %; hIL36β; NFκB-luciferase [1]: 96.9%
Maximum inhibition rate %; hIL36γ; NFκB-luciferase [1]: 98.4%
EC50 [2]: 11.9 nM
EC50 [3]: 4.26 nM
B1: hz72C1-1.2 (antibody, human IgG4 S228P, kappa)
heavy: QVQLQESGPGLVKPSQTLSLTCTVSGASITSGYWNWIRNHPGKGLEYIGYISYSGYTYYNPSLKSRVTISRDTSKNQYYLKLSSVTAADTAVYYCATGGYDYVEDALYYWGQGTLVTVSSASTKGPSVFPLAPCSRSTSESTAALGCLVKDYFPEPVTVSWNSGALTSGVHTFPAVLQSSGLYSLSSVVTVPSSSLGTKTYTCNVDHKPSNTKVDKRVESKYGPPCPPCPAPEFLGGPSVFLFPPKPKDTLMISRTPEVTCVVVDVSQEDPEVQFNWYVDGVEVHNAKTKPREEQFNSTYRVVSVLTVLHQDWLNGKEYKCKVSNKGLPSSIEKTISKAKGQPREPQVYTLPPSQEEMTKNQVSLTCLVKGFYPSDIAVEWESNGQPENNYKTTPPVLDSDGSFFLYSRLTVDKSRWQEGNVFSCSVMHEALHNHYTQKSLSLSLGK
light: DIQMTQSPSSLSASVGDRVTITCRASSNVRYMYWYQQKPGKAPKLWIYLTSNLASGVPSRFSGSGSGTSYTLTISSLQPEDFATYYCQQFTTSPYTFGQGTKLEIKRTVAAPSVFIFPPSDEQLKSGTASVVCLLNNFYPREAKVQWKVDNALQSGNSQESVTEQDSKDSTYSLSSTLTLSKADYEKHKVYACEVTHQGLSSPVTKSFNRGEC
notes: Humanized, human IgG4 / kappa

IC50 (M); hIL36α; NFκB-luciferase [1]: 9.83e-09 M
IC50 (M); hIL36αβγ; NFκB-luciferase [1]: 6.62e-08 M
IC50 (M); hIL36β; NFκB-luciferase [1]: 5.08e-09 M
IC50 (M); hIL36γ; NFκB-luciferase [1]: 3.72e-08 M
Maximum inhibition rate %; hIL36α; NFκB-luciferase [1]: 87.9%
Maximum inhibition rate %; hIL36αβγ; NFκB-luciferase [1]: 70.5%
Maximum inhibition rate %; hIL36β; NFκB-luciferase [1]: 92.3%
Maximum inhibition rate %; hIL36γ; NFκB-luciferase [1]: 85.4%
EC50 [2]: 19.3 nM
EC50 [3]: 10.5 nM
B2: hz72C1-2.1 (antibody, human IgG4 S228P, kappa)
heavy: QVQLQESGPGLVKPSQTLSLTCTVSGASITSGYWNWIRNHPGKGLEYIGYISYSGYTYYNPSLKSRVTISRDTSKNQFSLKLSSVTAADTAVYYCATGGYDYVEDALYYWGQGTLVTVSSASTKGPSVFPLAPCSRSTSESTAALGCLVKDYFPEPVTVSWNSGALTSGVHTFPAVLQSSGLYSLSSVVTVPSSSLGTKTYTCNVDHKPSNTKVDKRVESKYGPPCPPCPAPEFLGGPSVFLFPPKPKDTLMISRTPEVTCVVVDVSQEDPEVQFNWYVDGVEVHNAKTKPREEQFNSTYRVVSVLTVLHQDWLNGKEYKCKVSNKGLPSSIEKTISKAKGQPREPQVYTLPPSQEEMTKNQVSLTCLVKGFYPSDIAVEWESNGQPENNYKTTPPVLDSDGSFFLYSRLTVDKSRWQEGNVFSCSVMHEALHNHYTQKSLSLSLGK
light: B1 light with F90Y
notes: Humanized, human IgG4 / kappa

IC50 (M); hIL36α; NFκB-luciferase [1]: 9.56e-09 M
IC50 (M); hIL36αβγ; NFκB-luciferase [1]: 5.27e-08 M
IC50 (M); hIL36β; NFκB-luciferase [1]: 3.07e-09 M
IC50 (M); hIL36γ; NFκB-luciferase [1]: 2.82e-08 M
Maximum inhibition rate %; hIL36α; NFκB-luciferase [1]: 99.6%
Maximum inhibition rate %; hIL36αβγ; NFκB-luciferase [1]: 109%
Maximum inhibition rate %; hIL36β; NFκB-luciferase [1]: 94.6%
Maximum inhibition rate %; hIL36γ; NFκB-luciferase [1]: 98.1%
EC50 [2]: 11.6 nM
EC50 [3]: 2.73 nM
B3: hz72C1-1.1 (antibody, human IgG4 S228P, kappa)
heavy: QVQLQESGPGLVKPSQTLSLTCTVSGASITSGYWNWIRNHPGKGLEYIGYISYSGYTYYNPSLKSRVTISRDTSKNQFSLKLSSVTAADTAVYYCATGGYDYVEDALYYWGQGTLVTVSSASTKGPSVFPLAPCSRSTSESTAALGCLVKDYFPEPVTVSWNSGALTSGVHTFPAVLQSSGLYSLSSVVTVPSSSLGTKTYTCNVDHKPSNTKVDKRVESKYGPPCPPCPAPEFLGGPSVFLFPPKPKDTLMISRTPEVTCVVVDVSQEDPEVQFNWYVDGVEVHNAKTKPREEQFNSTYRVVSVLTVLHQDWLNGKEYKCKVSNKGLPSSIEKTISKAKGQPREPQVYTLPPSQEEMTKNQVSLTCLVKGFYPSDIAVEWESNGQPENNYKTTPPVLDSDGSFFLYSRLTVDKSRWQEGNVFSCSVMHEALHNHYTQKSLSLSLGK
light: B1 light
notes: Humanized, human IgG4 / kappa; also called humanized 72C1 antibody 1.1

IC50 (M); hIL36α; NFκB-luciferase [1]: 6.82e-09 M
IC50 (M); hIL36αβγ; NFκB-luciferase [1]: 4.03e-08 M
IC50 (M); hIL36β; NFκB-luciferase [1]: 3.88e-09 M
IC50 (M); hIL36γ; NFκB-luciferase [1]: 1.88e-08 M
Maximum inhibition rate %; hIL36α; NFκB-luciferase [1]: 98.7%
Maximum inhibition rate %; hIL36αβγ; NFκB-luciferase [1]: 90.1%
Maximum inhibition rate %; hIL36β; NFκB-luciferase [1]: 96.7%
Maximum inhibition rate %; hIL36γ; NFκB-luciferase [1]: 101%
EC50 [2]: 11.9 nM
EC50 [3]: 2.86 nM
B4: hz72C1-1.3 (antibody, human IgG4 S228P, kappa)
heavy: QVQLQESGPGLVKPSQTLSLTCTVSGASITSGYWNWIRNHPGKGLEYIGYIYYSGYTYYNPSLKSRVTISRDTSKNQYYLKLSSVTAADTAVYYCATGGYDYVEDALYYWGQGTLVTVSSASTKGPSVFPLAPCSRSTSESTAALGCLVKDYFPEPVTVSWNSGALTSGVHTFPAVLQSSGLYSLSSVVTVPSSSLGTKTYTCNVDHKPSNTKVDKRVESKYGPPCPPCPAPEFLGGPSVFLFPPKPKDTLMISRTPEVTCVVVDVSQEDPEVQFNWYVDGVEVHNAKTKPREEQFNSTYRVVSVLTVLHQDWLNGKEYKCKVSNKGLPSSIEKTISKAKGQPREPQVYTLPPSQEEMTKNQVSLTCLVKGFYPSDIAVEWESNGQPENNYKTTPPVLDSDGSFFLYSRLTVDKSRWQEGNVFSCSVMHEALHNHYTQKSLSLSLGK
light: B1 light
notes: Humanized, human IgG4 / kappa

IC50 (M); hIL36α; NFκB-luciferase [1]: 1.61e-08 M
IC50 (M); hIL36αβγ; NFκB-luciferase [1]: ~4.44e-08 M
IC50 (M); hIL36β; NFκB-luciferase [1]: 4.66e-09 M
IC50 (M); hIL36γ; NFκB-luciferase [1]: 3.68e-08 M
Maximum inhibition rate %; hIL36α; NFκB-luciferase [1]: 92%
Maximum inhibition rate %; hIL36αβγ; NFκB-luciferase [1]: 77.9%
Maximum inhibition rate %; hIL36β; NFκB-luciferase [1]: 94.7%
Maximum inhibition rate %; hIL36γ; NFκB-luciferase [1]: 87.9%
EC50 [2]: 17.6 nM
EC50 [3]: 4.87 nM
B5: hz72C1-2.2 (antibody, human IgG4 S228P, kappa)
heavy: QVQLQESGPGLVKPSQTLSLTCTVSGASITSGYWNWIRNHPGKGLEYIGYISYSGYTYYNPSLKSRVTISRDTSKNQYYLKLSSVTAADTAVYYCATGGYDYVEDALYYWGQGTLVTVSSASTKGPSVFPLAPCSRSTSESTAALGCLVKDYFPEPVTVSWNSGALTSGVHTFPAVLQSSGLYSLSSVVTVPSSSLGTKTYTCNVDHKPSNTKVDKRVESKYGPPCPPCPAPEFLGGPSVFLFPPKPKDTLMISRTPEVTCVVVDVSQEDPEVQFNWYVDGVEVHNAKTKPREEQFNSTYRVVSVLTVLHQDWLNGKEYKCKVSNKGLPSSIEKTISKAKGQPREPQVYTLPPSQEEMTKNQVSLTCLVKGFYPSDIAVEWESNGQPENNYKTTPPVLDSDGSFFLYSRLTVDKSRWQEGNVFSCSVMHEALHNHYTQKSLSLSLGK
light: B1 light with F90Y
notes: Humanized, human IgG4 / kappa

IC50 (M); hIL36α; NFκB-luciferase [1]: 1.61e-08 M
IC50 (M); hIL36αβγ; NFκB-luciferase [1]: ~1.39e-08 M
IC50 (M); hIL36β; NFκB-luciferase [1]: 2.93e-09 M
IC50 (M); hIL36γ; NFκB-luciferase [1]: 2.94e-08 M
Maximum inhibition rate %; hIL36α; NFκB-luciferase [1]: 90.8%
Maximum inhibition rate %; hIL36αβγ; NFκB-luciferase [1]: 66.3%
Maximum inhibition rate %; hIL36β; NFκB-luciferase [1]: 83.7%
Maximum inhibition rate %; hIL36γ; NFκB-luciferase [1]: 89%
EC50 [2]: 20.2 nM
EC50 [3]: 6.38 nM
B6: hz72C1-2.3 (antibody, human IgG4 S228P, kappa)
heavy: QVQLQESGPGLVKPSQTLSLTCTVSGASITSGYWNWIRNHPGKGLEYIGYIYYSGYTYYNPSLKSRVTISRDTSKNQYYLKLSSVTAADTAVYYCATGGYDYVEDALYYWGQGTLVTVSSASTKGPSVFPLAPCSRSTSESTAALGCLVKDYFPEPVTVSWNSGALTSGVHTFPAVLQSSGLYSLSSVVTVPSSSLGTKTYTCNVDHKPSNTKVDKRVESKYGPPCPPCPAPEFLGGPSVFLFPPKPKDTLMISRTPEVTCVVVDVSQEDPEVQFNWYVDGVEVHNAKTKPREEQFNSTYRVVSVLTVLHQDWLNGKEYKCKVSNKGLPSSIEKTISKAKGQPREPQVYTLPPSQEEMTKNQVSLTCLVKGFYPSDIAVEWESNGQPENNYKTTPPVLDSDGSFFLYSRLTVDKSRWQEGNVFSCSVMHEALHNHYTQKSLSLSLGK
light: B1 light with F90Y
notes: Humanized, human IgG4 / kappa

EC50 [4]: ~5.28 nM
B7: hz84C4-1.1 (antibody, human IgG4 S228P, kappa, V domains shown)
VH: QVQLVQSGAEVKKPGASVKVSCKASGYFFTSYWMNWVRQAPGQGLEWMGMIHPYDSETRYAQKFQGRVTMTVDKSTSTVYMELSSLRSEDTAVYYCASSTTAFAYWGQGTLVTVSS
VL: DIQMTQSPSSLSASVGDRVTITCRASQDIGNALNWYQQKPGKAPKRLIYATSSLDPGVPSRFSGSRSGTDFTLTISSLQPEDFATYYCLQYASSPYTFGQGTKVEIKR
notes: Humanized, human IgG4 / kappa

EC50 [4]: 14.5 nM
B8: hz84C4-2.3 (antibody, human IgG4 S228P, kappa, V domains shown)
VH: B7 VH with H52Y
VL: B7 VL with Y36L, F71Y
notes: Humanized, human IgG4 / kappa

EC50 [4]: 6 nM
B9: hz84C4-1.2 (antibody, human IgG4 S228P, kappa, V domains shown)
VH: B7 VH with M50Y
VL: B7 VL
notes: Humanized, human IgG4 / kappa

EC50 [4]: 5.75 nM
B10: hz84C4-1.4 (antibody, human IgG4 S228P, kappa, V domains shown)
VH: B7 VH with F28Y, Y60L, Q65K
VL: B7 VL
notes: Humanized, human IgG4 / kappa

EC50 [4]: ~5.04 nM
B11: hz84C4-2.5 (antibody, human IgG4 S228P, kappa, V domains shown)
VH: B7 VH with A24V, R38N, Y60L, Q65K
VL: B7 VL with Y36L, F71Y
notes: Humanized, human IgG4 / kappa

EC50 [4]: ~5.22 nM
B12: hz84C4-2.1 (antibody, human IgG4 S228P, kappa, V domains shown)
VH: B7 VH
VL: B7 VL with Y36L, F71Y
notes: Humanized, human IgG4 / kappa

EC50 [4]: 18.2 nM
B13: hz84C4-1.3 (antibody, human IgG4 S228P, kappa, V domains shown)
VH: B7 VH with H52Y
VL: B7 VL
notes: Humanized, human IgG4 / kappa

EC50 [4]: ~5.26 nM
B14: hz84C4-2.4 (antibody, human IgG4 S228P, kappa, V domains shown)
VH: B7 VH with F28Y, Y60L, Q65K
VL: B7 VL with Y36L, F71Y
notes: Humanized, human IgG4 / kappa

EC50 [4]: ~5.1 nM
B15: hz84C4-1.5 (antibody, human IgG4 S228P, kappa, V domains shown)
VH: B7 VH with A24V, R38N, Y60L, Q65K
VL: B7 VL
notes: Humanized, human IgG4 / kappa

EC50 [4]: ~5.23 nM
B16: hz84C4-2.2 (antibody, human IgG4 S228P, kappa, V domains shown)
VH: B7 VH with M50Y
VL: B7 VL with Y36L, F71Y
notes: Humanized, human IgG4 / kappa
